# Results as given in patent US20230068663A1 (University of Texas, published 2023).
# Tests used:
# [1] = target: T1, LILRB2 chimeric receptor on LILRB2 reporter cells (extracellular domain of LILRB2 fused with … (UniProt Q8N423 22-460)); test: flow cytometry, LILRB2 reporter cells
# T1 construct: extracellular domain;domain: transmembrane/intracellular domains; associates with DAP12; also called LILRB2-expressing reporter cells
# Description: FIGS. 1A-C. Screening specific monoclonal antibodies for LILRB2. […] Binding of monoclonal antibodies was screened using flow cytometer on LILRB2 reporter cells. Bound antibodies were detected with Allophycocyanin (APC)-labeled goat anti-human IgG secondary antibody. (FIG. 1B) Quantification of binding ability of monoclonal antibodies to LILRB2 reporter cells.
# Screening specific monoclonal antibodies for LILRB2. The inventors employed a stable reporter cell system to detect the binding ability of selected monoclonal antibodies to LILRB2. In this chimeric receptor reporter system, the extracellular domain (ECD) of LILRB2 is fused with transmembrane/intracellular domains of PILRb that associates with the adaptor protein DAP12 containing an immunoreceptor tyrosine-based activation motif. 27 monoclonal antibodies were screened. The LILRB2 reporter cells were incubated with selected monoclonal antibody, then labeled with (APC) goat anti-human IgG secondary antibody. […] The inventors generated LILRBAs and LILRBs reporters stably transduced with each receptor's extracellular domain (ECD).
# [2] = target: T2, LILRB2-His antigen (UniProt Q8N423 22-460, limits assumed); test: indirect ELISA, coated LILRB2-His
# T2 construct: Coated on ELISA plates; also used for phage panning; also called LILRB2 antigen; not shown: His tag
# Procedure: ELISA binding EC of LILRB2 antibodies. The ELISA binding EC₅₀ of these 24 antibodies were measured by indirect ELISA. […] After incubation, HRP-conjugated goat anti-human Fc secondary antibody was incubated with the plates. The TMB substrate was added for color development and measurement of absorbance at 450 nm.
# [3] = target: T3, full extracellular domain (ECD) of LILRB2 fused to Fc fragment of mouse IgG2a (human; mouse, UniProt Q8N423 22-460); test: ELISA, coated human LILRB2 ECD-mIgG2a Fc [panel A]
# T3 construct: extracellular domain; also called B2-ECD; wildtype B2-ECD; not shown: Fc fragment of mouse IgG2a
# Description: FIGS. 19A-B. ELISA binding measurement of antibodies to human and non-human primate (cynomolgus monkey, cyno) LILRB2 recombinantly produced in HEK293 cells. (FIG. 19A) ELISA binding to human LILRB2. (FIG. 19B) ELISA binding to cyno-LILRB2. The fusion proteins of the extracellular domain (ECD) of human LILRB2 or NHP-LILRB2 with Fe of mouse IgG2a were used to coat ELISA plates and antibodies were titrated in different concentrations as indicated in the graph.
Binder,% of cells anti-hIgG APC+ [1] [%],EC50 [2] [nM],binding result [3]
"B2-9 (antibody, human IgG1, V domains shown, also called B2-9_HC; B2-9_LC) VH: QVQLVQSGAEVKKPGASVKVSCKASGYTFTSYGISWVRQAPGQGLEWMGWISAYNGNTNYAQKLQGRVTMTTDTSTSTAYMELRSLRSDDTAVYYCARDGYGMDVWGQGTTVTVSS VL: QSPSSLSASVGDRVTITCRTSHTVNSYLNWYQQEPGKAPKLLIYAASNLQSGVPSRFSGSGSGTDFSLTIHNLQPEDFATYYCQQSYRTPLTFGQGTKVDIK",0.09,0.608,
"B2-22 (antibody, V domains shown, also called B2-22_HC; B2-22_LC) VH: QVQLVQSGAEVKKPGASVKVSCKASGYTFTSYGISWVRQAPGQGLEWMGWISAYNGNTNYAQKLQGRVTMTTDTSTSTAYMELRSLRSDDTAVYYCARVGSYGDYWGQGTLVTVSS VL: QSPSSLSASVGDRVTITCRASQGISNYLAWYQQKPGKVPKLLIYAASTLQSGVPSRFSGSGSGTDFTLTISSLQPEDVATYYCQKYNSAPLTFGGGTKLEIK",0.19,0.348,
"B2-30 (antibody, human IgG1, V domains shown, also called B2-30_HC; B2-30_LC) VH: QVQLVESGGGLVQPGGSLRLSCAASGFTFSSYDMHWVRQATGKGLEWVSAIGTAGDTYYPGSVKGRFTISRENAKNSLYLQMNSLRAGDTAVYYCARAKEYCSGGSCQDAFDIWGQGTMVSVSS VL: QSPSSLSASVGDRVTITCRASQSIRTYLNWYQQKPGKDPELLIYAATSLQSGVPSRFTGSGSGTDFTLTISSLQPEDFATYYCQQSYSAPVFTFGQGTKLEIK",4.92,1.19,
"B2-14 (antibody, V domains shown, also called B2-14_HC; B2-14_LC) VH: QVQLVQSGAEVKKPGSSVKVSCKASGGTFSSYAISWVRQAPGQGLEWMGGIIPIFGTANYAQKFQGRVTITADESTSTAYMELSSLRSEDTAVYYCARASMVETYFDYWGQGTMVTVSS VL: QSVLTQPRSVSGSPGQSVTISCTGTSSDVGGYNYVSWYQQHPGKAPKLMISEVSKRPSGVPDRFSGSKSGNTASLTVSGLQAEDEADYYCSSYAGGYTPYVFGTGTKVTVL",3.74,1.97,
"B2-3 (antibody, V domains shown, also called B2-3_HC; B2-3_LC) VH: QVQLVQSGAEVKKPGASVKVSCRTSGYTFSSYGISWVRQAPGQGLEWMGWISGNTGNTKYTPKLQGRVTMTTDTSTSTAYMELRSLRSDDTAVYYCARDRGIAAGRAFDIWGQGTMVTVSS VL: QPVLTQPPSASGTPGQRVTISCSGSSSNIGTNPVNWYQQVPGTGPKLLIYNNNQWPSGVPDRFSGSKSATSASLAIYGLQSGDEAHYYCSSWDDSLSAWVFGGGTKVTVL",0.58,0.787,
"HCB2-1c (antibody, V domains shown) VH: EVQLVQSGAEVKKPGASVKVACKASGYTFTDYYIHWVRQAPGQGLEWMGIVNANGGDTNYAQQFQGRVTMTRDTSTSTVYLELTSLRSDDTAVYYCARDWYYYSSGSFPFDYWGQGTLVSVSS VL: AIQMTQSPSSLSASVGDRVSITCRASQSISSFLNWYQQRPGKAPELLIYGASSLQSGVPSRFSGSGSGTDFTLTISSLQPEDFATYYCQQSYSIPITFGQGTQLEIK",,,binds
"HCB2-1d (antibody, V domains shown) VH: EVQLVQSGAEVKKPGASVKVACKASGYTFTDYYIHWVRQAPGQGLEWMGIVNANGGDTNYAQQFQGRVTMTRDTSTSTVYLELTSLRSDDTAVYYCARDWYYYSSGSFPFDYWGQGTLVSVSS VL: DVQMTQSPSSLSASVGDRVSITCKASQDVSIAVAWYQQKPGKAPKLLIYSASYRYTGVPDRFSGSGSGTDFTLTISSLQPEDFAVYYCQQHYITPLTFGAGTKLEIK",,,binds
"HCB2-2 (antibody, V domains shown, also called HCB2-2_HC; HCB2-2_LC) VH: QVQLVQSGAEVKKPGASVKVSCKASGYIFNTYGISWVRQAPGQGLEWMGWTNVYNSNTDSGHKFQGRVTMTTDTSTDTAYMELRSLRSDDTAVYYCARDPGSAIFDMWGQGTMVTVSS VL: DVQMTQSPSSLSASVGDRVSITCRASQSISSFLNWYQQRPGKAPELLIYGASSLQSGVPSRFSGSGSGTDFTLTISSLQPEDFATYYCQQSYSIPITFGQGTRLEIK",,,binds
"HCB2-13 (antibody, V domains shown, also called HCB2-13_HC; HCB2-13_LC) VH: QVQLVESGGGLVQPGGSLRLSCAASGFTLSSYAMSWVRQAPGEGLEWVSSINSGGSTYYAGSVRGRFTISRDNSKNTLYLQMNSLRAEDTAVYYCAKAKSYSSDLDHWGQGTTVTVSS VL: DVVMTQSPSSLSVSAGEKVTMSCKSSQSLLNSGNQKTYLAWYQQKPGQPPKLLIYGASTRESGVPDRFTGSGSGTDFTLTISSVQAEDLAVYYCQNDHSYPFTFGSGTKVEIKR",,,binds
"B2-4 (antibody, V domains shown, also called B2-4_HC; B2-4_LC) VH: QVQLVQSGPTVRKPGASVRVSCKASGYPFTSNGMSWVRQAPGQGLEWMGWISTNSGNTNYAQKFQGRVTLTTDTSSTTTYLDLRSLTSDDTAIYYCARDVQYRMDVWGQGTTVTVSS VL: QSVLTQPPSASGTPGQRVTISCSGSRSNIGSNPVNWYQHLPGTAPKLLVYSNNRRPSGVPDRFSGSKSGTSASLSISGLQSEDEGVYYCAAWDDNVHGVFGGGTKVTVL",0.7,1.76,
"HCB2-4 (antibody, V domains shown, also called HCB2-4_HC; HCB2-4_LC) VH: QVELQESGPGLVKPSETLSLTCTVSGDAIKDKYWSWVRQPPGKGLEWIGYISNSGSTNYNPSLKSRVSLSVDTSKNQFSLKQTSVTAADTATYYCARGSGYTAFDIWGQGTMVTVSS VL: not shown",,,binds
"B2-23 (antibody, V domains shown, also called B2-23_HC; B2-23_LC) VH: QVQLVQSGAEVKKPGASVKVSCKASGYTFTHSYIHWVRQAPGQGLEWMGVINPVGGSTTYAQRFQGRVTMTRDTSTSTVYMELSSLRSEDTAVYYCARAGGDGYNPYFDYWGQGTLVTVSS VL: not shown",0.47,2.44,
"B2-2 (antibody, V domains shown, also called B2-2_HC; B2-2_LC) VH: QVQLVQSGAEVKKPGASVKVSCKASGYTFSDYGFSWVRQAPGQGLEWMGWISGYNGNTNYAQKFQGRVTMTIDASTSTAYMELRSLKSDDTAVYYCARLLLGYYGMDVWGQGTTVTVSS VL: DIVMTQSPSSLSASVGDRVTLTCRASQSIGNYLNWYQQKPGKAPNLLIYAASSLQSGVPSRFSGSGSGTDFTLTISSLQPEDFATYYCQQSFSIPPITFGQGTRLEIK",0.14,1.6,
"B2-26 (antibody, V domains shown, also called B2-26_HC; B2-26_LC) VH: QVQLVQSGAEVKKPGASVKVSCKASGYTFTSYGISWVRQAPGQGLEWMGWISAYNGNTNYAQKLQGRVTMTTDTSTSTAYMELRSLRSDDTAVYYCARDRGGWFDPWGQGTLVIVSS VL: QSPSSLSASVGDRVTITCRASQSISNFVNWYQQKPGEVPKLLIYGASSLQSGVPSRFSGSGSGTDFTLTISSLQPEDFATYYCQQGYSVPLTFGGGTTVDIK",0.12,1.02,
"B2-11 (antibody, V domains shown, also called B2-11_HC; B2-11_LC) VH: QVQLQQSGPGLVKPSQTLSLTCAISGDSVSSNSAAWNWIRQSPSRGLEWLGRTYYRSKWYNDYAVSVKSRITINPDTSKNQFSLQLNSVTPEDTAVYYCARQDESAADDAFDIWGQGTLVIVSS VL: QSVLTQPPSASGTPGQRVTISCSGSKSNVGNNFVHWYQQLPGTAPKLLLYSNLERSSGVPERFSGSKSGTSAYLAISGLRSDDEADYYCAAWDDSLPGWVFGGGTKLTVL",0.28,3.79,
"B2-1 (antibody, V domains shown, also called B2-1_HC; B2-1_LC) VH: EVQLVQSGAEVKKPGSSVKVSCKASGGTFSSYAISWVRQAPGQGLEWMGGIIPIFGTANYAQKFQGRVTITADKSTSTAYMELSSLRSEDTAVYYCARGNQGDTAFDIWGQGTTVIVSS VL: QSALNQPASVSGSPGQSITISCTGTSSDVGGYNYVSWYQQHPGKAPKLMIYDVSNRPSGVSNRFSGSKSGNTASLTISGLQAEDEADYYCSSYTSSSTPYVFGTGTKVTVL",1.69,,
"B2-13 (antibody, V domains shown, also called B2-13_HC; B2-13_LC) VH: QVQLVQSGAEVKKPGSSVKVSCKASGGTFSSYAISWVRQAPGQGLEWMGGIIPIFGTANYAQKFQGRVTITADESTSTAYMELSSLRSEDTAVYYCARSDYGDSYFDYWGQGTLVSVSS VL: QAVVTQPASVSGSPGQSVSISCTGTSSDVGGFNYVSWYQQHPGKAPKLMIYDVSNRPSGVSNRFSGSKSGNTASLTISGLQAEDEADYYCSSYTSSTAPYVFGTGTKVTVL",1.23,5.15,
"B2-27 (antibody, human IgG1, V domains shown, also called B2-27_HC; B2-27_LC) VH: QVQLVQSGAEVKKPGSSVKVSCKASGGTFSSYAISWVRQAPGQGLEWMGGIIPIFGTANYAQKFQGRVTITADESTSTAYMELSSLRSEDTAVYYCARESYSSSSFDYWGQGTTVSVSS VL: QPVLTQPASVSGSPGQSITISCTGTSSDVGGYNYVSWYQQHPGKAPKLMIYDVSNRPSGVSNRFSGSKSGNSASLTISGLQAEDEADYYCSSYTSSSTPYVFGTGTKVTVL",1.1,379,
